# How the values were obtained:
# [1] = target: HLA-B*27:05; assay: IEDB peptide-MHC binding, purified MHC/competitive/fluorescence; ≥ and ≤ were set here for values at or beyond the usual limits of such assays; details: source organism: hepatitis C virus genotype 1a
# [2] = target: HLA-B*46:01; assay: IEDB peptide-MHC binding, cellular MHC/competitive/fluorescence; ≥ and ≤ were set here for values at or beyond the usual limits of such assays; details: source organism: Human herpesvirus 4 strain B95-8
# [3] = target: HLA-A*29:02; assay: IEDB peptide-MHC binding, purified MHC/competitive/radioactivity; ≥ and ≤ were set here for values at or beyond the usual limits of such assays; details: source organism: Human papillomavirus 16
# [4] = target: HLA-B*35:01; assay: IEDB peptide-MHC binding, cellular MHC/competitive/fluorescence; ≥ and ≤ were set here for values at or beyond the usual limits of such assays; details: source organism: Mycobacterium tuberculosis H37Rv
# [5] = target: HLA-B*15:02; assay: IEDB peptide-MHC binding, purified MHC/competitive/fluorescence; filed as Kd, often an IC50 or EC50 that approximates it; ≥ and ≤ were set here for values at or beyond the usual limits of such assays
# [6] = target: HLA-B*15:42; assay: as above; details: source organism: Burkholderia pseudomallei 406e
# [7] = target: HLA-A*32:15; assay: as above; details: source organism: Burkholderia pseudomallei 406e
# [8] = target: HLA-A*68:23; assay: as above; details: source organism: Burkholderia pseudomallei 406e
# [9] = target: HLA-B*40:13; assay: as above; details: source organism: Burkholderia pseudomallei 406e
# [10] = target: HLA-B*45:06; assay: as above; details: source organism: Burkholderia pseudomallei 406e
# [11] = target: HLA-A*29:02; assay: as above; details: source organism: Burkholderia pseudomallei 406e
# [12] = target: HLA-B*27:20; assay: as above; details: source organism: Burkholderia pseudomallei 406e
# [13] = target: HLA-B*83:01; assay: as above; details: source organism: Burkholderia pseudomallei 406e
# [14] = target: HLA-C*06:02; assay: as above; details: source organism: Burkholderia pseudomallei 406e
# [15] = target: HLA-C*14:02; assay: IEDB peptide-MHC binding, purified MHC/direct/fluorescence; filed as Kd, often an IC50 or EC50 that approximates it; ≥ and ≤ were set here for values at or beyond the usual limits of such assays; details: source organism: Burkholderia pseudomallei 406e
# [16] = target: HLA-C*15:02; assay: as above; details: source organism: Burkholderia pseudomallei 406e
# [17] = target: HLA-C*07:02; assay: as above; details: source organism: Burkholderia pseudomallei 406e
# [18] = target: HLA-B*08:01; assay: as above; details: source organism: Pasteurella multocida
# [19] = target: HLA-B*07:02; assay: as above; details: source organism: Pasteurella multocida
# [20] = target: HLA-B*27:05; assay: as above; details: source organism: Pasteurella multocida
# [21] = target: HLA-A*69:01; assay: as above; details: source organism: Pasteurella multocida
# [22] = target: HLA-A*26:01; assay: as above; details: source organism: Pasteurella multocida
# [23] = target: HLA-A*03:01; assay: as above; details: source organism: Pasteurella multocida
# [24] = target: HLA-A*02:01; assay: as above; details: source organism: Pasteurella multocida
# [25] = target: HLA-A*31:01; assay: as above; details: source organism: Pasteurella multocida
# [26] = target: HLA-B*58:01; assay: as above; details: source organism: Pasteurella multocida
# [27] = target: HLA-B*15:01; assay: as above; details: source organism: Pasteurella multocida
# [28] = target: HLA-A*01:01; assay: as above; details: source organism: Pasteurella multocida
# [29] = target: HLA-A*11:01; assay: as above; details: source organism: Pasteurella multocida
# [30] = target: HLA-B*35:01; assay: as above; details: source organism: Pasteurella multocida
# [31] = target: HLA-B*40:01; assay: as above; details: source organism: Pasteurella multocida
# [32] = target: HLA-B*27:04; assay: IEDB peptide-MHC binding, cellular MHC/competitive/fluorescence; ≥ and ≤ were set here for values at or beyond the usual limits of such assays; details: source organism: Human herpesvirus 4 strain B95-8
sequence,measurement,setting,value
GKAVICGKY,IC50,[1],4670 nM
HAMHISTGL,IC50,[2],5000 nM
IFVYIPLFL,IC50,[3],444 nM
MPVGGQSSFY,IC50,[4],300 nM
MQLPQGGAF,Kd,[5]; source organism: Burkholderia pseudomallei K96243,23.5 nM
MSWGWRLPF,Kd,[6],≥ 5000 nM
same,Kd,[7],5 nM
same,Kd,[8],80.2 nM
same,Kd,[9],223 nM
same,Kd,[10],≥ 5000 nM
same,Kd,[11],16.1 nM
same,Kd,[12],49.7 nM
same,Kd,[13],5920 nM
same,Kd,[14],387 nM
same,Kd,[15],286 nM
same,Kd,[16],1720 nM
same,Kd,[17],248 nM
SQLEMCEKY,Kd,[5]; source organism: Pasteurella multocida subsp. multocida str. Pm70,74.4 nM
same,Kd,[18],≥ 20000 nM
same,Kd,[19],≥ 20000 nM
same,Kd,[20],≥ 20000 nM
same,Kd,[21],≥ 20000 nM
same,Kd,[22],≥ 20000 nM
same,Kd,[23],≥ 20000 nM
same,Kd,[24],≥ 20000 nM
same,Kd,[25],≥ 20000 nM
same,Kd,[26],≥ 20000 nM
same,Kd,[27],299 nM
same,Kd,[28],≥ 20000 nM
same,Kd,[29],≥ 20000 nM
same,Kd,[30],121 nM
same,Kd,[31],≥ 20000 nM
SRRTSRPNR,IC50,[32],10000 nM
